Where “and” joins values, the source holds several entries; their conditions need not be identical. Identical values can stand only once. Like-named read-outs stand apart in the source and are kept apart here.
What was measured:
Test in all cases: SEC
[1] = target: the molecule itself
[2] = target: the molecule itself; remark: listed apart in the source
[3] = target: the molecule itself; remark: listed apart in the source

Row | Protein | stoichiometry N [1] | stoichiometry N [2] | stoichiometry N [3]
1 | hRRM1 with the first 74 residues deleted (t-hRRM1) (domain or fragment, human, UniProt P23921 75-792, looked up) AILAARIAVSNLHKETKKVFSDVMEDLYNYINPHNGKHSPMVAKSTLDIVLANKDRLNSAIIYDRDFSYNYFGFKTLERSYLLKINGKVAERPQHMLMRVSVGIHKEDIDAAIETYNLLSERWFTHASPTLFNAGTNRPQLSSCFLLSMKDDSIEGIYDTLKQCALISKSAGGIGVAVSCIRATGSYIAGTNGNSNGLVPMLRVYNNTARYVDQGGNKRPGAFAIYLEPWHLDIFEFLDLKKNTGKEEQRARDLFFALWIPDLFMKRVETNQDWSLMCPNECPGLDEVWGEEFEKLYASYEKQGRVRKVVKAQQLWYAIIESQTETGTPYMLYKDSCNRKSNQQNLGTIKCSNLCTEIVEYTSKDEVAVCNLASLALNMYVTSEHTYDFKKLAEVTKVVVRNLNKIIDINYYPVPEACLSNKRHRPIGIGVQGLADAFILMRYPFESAEAQLLNKQIFETIYYGALEASCDLAKEQGPYETYEGSPVSKGILQYDMWNVTPTDLWDWKVLKEKIAKYGIRNSLLIAPMPTASTAQILGNNESIEPYTSNIYTRRVLSGEFQIVNPHLLKDLTERGLWHEEMKNQIIACNGSIQSIPEIPDDLKQLYKTVWEISQKTVLKMAAERGAFIDQSQSLNIHIAEPNYGKLTSMHFYGWKQGLKTGMYYLRTRPAANPIQFTLNKEKLKDKEKVSKEEEEKERNTAAMVCSLENRDECLMCGS | 2 | – | –
2 | human ribonucleotide reductase RR1 (hRRM1), wild type (enzyme, UniProt P23921 1-792, looked up) MHVIKRDGRQERVMFDKITSRIQKLCYGLNMDFVDPAQITMKVIQGLYSGVTTVELDTLAAETAATLTTKHPDYAILAARIAVSNLHKETKKVFSDVMEDLYNYINPHNGKHSPMVAKSTLDIVLANKDRLNSAIIYDRDFSYNYFGFKTLERSYLLKINGKVAERPQHMLMRVSVGIHKEDIDAAIETYNLLSERWFTHASPTLFNAGTNRPQLSSCFLLSMKDDSIEGIYDTLKQCALISKSAGGIGVAVSCIRATGSYIAGTNGNSNGLVPMLRVYNNTARYVDQGGNKRPGAFAIYLEPWHLDIFEFLDLKKNTGKEEQRARDLFFALWIPDLFMKRVETNQDWSLMCPNECPGLDEVWGEEFEKLYASYEKQGRVRKVVKAQQLWYAIIESQTETGTPYMLYKDSCNRKSNQQNLGTIKCSNLCTEIVEYTSKDEVAVCNLASLALNMYVTSEHTYDFKKLAEVTKVVVRNLNKIIDINYYPVPEACLSNKRHRPIGIGVQGLADAFILMRYPFESAEAQLLNKQIFETIYYGALEASCDLAKEQGPYETYEGSPVSKGILQYDMWNVTPTDLWDWKVLKEKIAKYGIRNSLLIAPMPTASTAQILGNNESIEPYTSNIYTRRVLSGEFQIVNPHLLKDLTERGLWHEEMKNQIIACNGSIQSIPEIPDDLKQLYKTVWEISQKTVLKMAAERGAFIDQSQSLNIHIAEPNYGKLTSMHFYGWKQGLKTGMYYLRTRPAANPIQFTLNKEKLKDKEKVSKEEEEKERNTAAMVCSLENRDECLMCGS | – | 2 | 6
3 | hRRM1 H2E (enzyme, human, UniProt P23921 1-792, looked up) MEVIKRDGRQERVMFDKITSRIQKLCYGLNMDFVDPAQITMKVIQGLYSGVTTVELDTLAAETAATLTTKHPDYAILAARIAVSNLHKETKKVFSDVMEDLYNYINPHNGKHSPMVAKSTLDIVLANKDRLNSAIIYDRDFSYNYFGFKTLERSYLLKINGKVAERPQHMLMRVSVGIHKEDIDAAIETYNLLSERWFTHASPTLFNAGTNRPQLSSCFLLSMKDDSIEGIYDTLKQCALISKSAGGIGVAVSCIRATGSYIAGTNGNSNGLVPMLRVYNNTARYVDQGGNKRPGAFAIYLEPWHLDIFEFLDLKKNTGKEEQRARDLFFALWIPDLFMKRVETNQDWSLMCPNECPGLDEVWGEEFEKLYASYEKQGRVRKVVKAQQLWYAIIESQTETGTPYMLYKDSCNRKSNQQNLGTIKCSNLCTEIVEYTSKDEVAVCNLASLALNMYVTSEHTYDFKKLAEVTKVVVRNLNKIIDINYYPVPEACLSNKRHRPIGIGVQGLADAFILMRYPFESAEAQLLNKQIFETIYYGALEASCDLAKEQGPYETYEGSPVSKGILQYDMWNVTPTDLWDWKVLKEKIAKYGIRNSLLIAPMPTASTAQILGNNESIEPYTSNIYTRRVLSGEFQIVNPHLLKDLTERGLWHEEMKNQIIACNGSIQSIPEIPDDLKQLYKTVWEISQKTVLKMAAERGAFIDQSQSLNIHIAEPNYGKLTSMHFYGWKQGLKTGMYYLRTRPAANPIQFTLNKEKLKDKEKVSKEEEEKERNTAAMVCSLENRDECLMCGS | – | – | 2 and 6
